Laboratory results published in US20220289837A1 (VIB VZW, published 2022).
Values belong to the binder of their own block, whether it stands above or below them.

Tests used:
[1] = target: T1, 2PT-NBD1 (human CFTR nucleotide-binding domain 1, residues 387-646, with S492P, A534P, I539T) (human, UniProt P13569 388-646, biotinylated for the ELISA (sites not given)); experiment: ELISA, biotinylated 2PT-NBD1 on avidin-coated plate, T2a titrated
T1 construct: N-terminal His6-SUMO tag removed with Ulp1; In the T2a-T4 and T27 crystals the domain was cut by papain or subtilisin
T1 sequence (P13569 388-646 V470M/S492P/A534P/I539T limits assumed): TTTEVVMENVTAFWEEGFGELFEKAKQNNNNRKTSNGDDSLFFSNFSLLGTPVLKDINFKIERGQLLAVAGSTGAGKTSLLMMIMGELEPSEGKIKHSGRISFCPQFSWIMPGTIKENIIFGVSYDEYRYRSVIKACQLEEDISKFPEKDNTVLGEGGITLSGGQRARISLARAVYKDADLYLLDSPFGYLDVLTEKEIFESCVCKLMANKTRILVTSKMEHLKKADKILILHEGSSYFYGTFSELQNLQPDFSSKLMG
Source text: (§1) The location of these nanobodies completely overlaps (FIG. 11a) with that of the C-terminal regulatory extension (RE) observed in previously published structures of NBD1^{[25,26].} The RE segment, comprising residues 654-673 was removed from the 2PT-NBD1 construct used for immunization and characterization. While the functional role of the RE is still unclear, it has been described to be a very mobile domain^{[27]}. […] This is consistent with RE being a dynamic region of CFTR.
(§2) For dose-response assays, Nunc MaxiSorp 96-well plates (ThermoScientific), were coated with 5 μg/ml NeutrAvidin Biotin-Binding protein (ThermoScientific) overnight at 4° C. and blocked 2 h at room temperature (RT) with 2% milk in phosphate-buffered saline (PBS). Each new reagent addition was preceded by three washes with 200 μl of NBD1 buffer (20 mM HEPES pH 7.5, 150 mM NaCl, and 10% (w/v) glycerol, 10% (w/v) ethylene glycol, 2 mM ATP, 3 mM MgCl₂). Then, biotinylated purified NBD1 proteins at 5 μg/ml were immobilized 30 min at RT followed by 1 h RT incubation with 100 μl various concentrations (0-20 μg/ml) of purified nanobodies. […] 50 μl of 1-Step UltraTMB-ELISA (ThermoScientific) was used as a substrate for the peroxidase and intensity of the reaction was proportional to absorbance measured at 450 nm with SynergyMx (BioTek) after addition of 50 μl H₂SO₄ at 1M.

[2] = target: T1, 2PT-NBD1 (human CFTR nucleotide-binding …); experiment: ELISA, biotinylated 2PT-NBD1 on avidin-coated plate, nanobody titrated, anti-His detection; column head 'pEC50 (M)'
Description: (§3) (a) Nanobody binding to 2PT-NBD1 measured by ELISA. Biotinylated 2PT-NBD1 was immobilized on avidin-coated plates and incubated with increasing concentration of each nanobody. Binding of nanobody was followed by immunodetection of the His-tag (see Methods). Representative curve of 3 independent experiments is shown. Error bars represent the standard deviation (SD) of duplicates. Data were normalized to maximum signal for each nanobody separately. (b) Nanobody binding to F508del-2PT-NBD1 measured by ELISA as described in panel a. (c) Nanobody T4 binding to 2PT-NBD1 and F508del-2PT-NBD1. Data were normalized to maximum signal of T4 binding to 2PT-NBD1. (d) Nanobody T8 binding to 2PT-NBD1 and F508del-2PT-NBD1. Data were normalized to maximum signal of T8 binding to 2PT-NBD1.
(§4) For dose-response assays, Nunc MaxiSorp 96-well plates (ThermoScientific), were coated with 5 μg/ml NeutrAvidin Biotin-Binding protein (ThermoScientific) overnight at 4° C. and blocked 2 h at room temperature (RT) with 2% milk in phosphate-buffered saline (PBS). Each new reagent addition was preceded by three washes with 200 μl of NBD1 buffer (20 mM HEPES pH 7.5, 150 mM NaCl, and 10% (w/v) glycerol, 10% (w/v) ethylene glycol, 2 mM ATP, 3 mM MgCl₂). Then, biotinylated purified NBD1 proteins at 5 μg/ml were immobilized 30 min at RT followed by 1 h RT incubation with 100 μl various concentrations (0-20 μg/ml) of purified nanobodies. Signal detection was followed using His-tag specific antibody (Invitrogen, catalogue number: MA1-135, 1:3000 dilution) to detect the nanobodies and secondary antibody anti-mouse coupled to horse radish peroxidase (HRP) (Millipore, catalogue number: AP308P, 1:5000 dilution). 50 μl of 1-Step UltraTMB-ELISA (ThermoScientific) was used as a substrate for the peroxidase and intensity of the reaction was proportional to absorbance measured at 450 nm with SynergyMx (BioTek) after addition of 50 μl H₂SO₄ at 1M.

[3] = target: T2, Stabilized human CFTR (stab-CFTR: 2PT/ΔRI/R1048A_1172X) (human, UniProt P13569 1-1171, limits assumed); experiment: cell-based or functional assay
T2 sequence (P13569 other isoform, or with tags, fused parts or gaps R1048A R1048A limits assumed): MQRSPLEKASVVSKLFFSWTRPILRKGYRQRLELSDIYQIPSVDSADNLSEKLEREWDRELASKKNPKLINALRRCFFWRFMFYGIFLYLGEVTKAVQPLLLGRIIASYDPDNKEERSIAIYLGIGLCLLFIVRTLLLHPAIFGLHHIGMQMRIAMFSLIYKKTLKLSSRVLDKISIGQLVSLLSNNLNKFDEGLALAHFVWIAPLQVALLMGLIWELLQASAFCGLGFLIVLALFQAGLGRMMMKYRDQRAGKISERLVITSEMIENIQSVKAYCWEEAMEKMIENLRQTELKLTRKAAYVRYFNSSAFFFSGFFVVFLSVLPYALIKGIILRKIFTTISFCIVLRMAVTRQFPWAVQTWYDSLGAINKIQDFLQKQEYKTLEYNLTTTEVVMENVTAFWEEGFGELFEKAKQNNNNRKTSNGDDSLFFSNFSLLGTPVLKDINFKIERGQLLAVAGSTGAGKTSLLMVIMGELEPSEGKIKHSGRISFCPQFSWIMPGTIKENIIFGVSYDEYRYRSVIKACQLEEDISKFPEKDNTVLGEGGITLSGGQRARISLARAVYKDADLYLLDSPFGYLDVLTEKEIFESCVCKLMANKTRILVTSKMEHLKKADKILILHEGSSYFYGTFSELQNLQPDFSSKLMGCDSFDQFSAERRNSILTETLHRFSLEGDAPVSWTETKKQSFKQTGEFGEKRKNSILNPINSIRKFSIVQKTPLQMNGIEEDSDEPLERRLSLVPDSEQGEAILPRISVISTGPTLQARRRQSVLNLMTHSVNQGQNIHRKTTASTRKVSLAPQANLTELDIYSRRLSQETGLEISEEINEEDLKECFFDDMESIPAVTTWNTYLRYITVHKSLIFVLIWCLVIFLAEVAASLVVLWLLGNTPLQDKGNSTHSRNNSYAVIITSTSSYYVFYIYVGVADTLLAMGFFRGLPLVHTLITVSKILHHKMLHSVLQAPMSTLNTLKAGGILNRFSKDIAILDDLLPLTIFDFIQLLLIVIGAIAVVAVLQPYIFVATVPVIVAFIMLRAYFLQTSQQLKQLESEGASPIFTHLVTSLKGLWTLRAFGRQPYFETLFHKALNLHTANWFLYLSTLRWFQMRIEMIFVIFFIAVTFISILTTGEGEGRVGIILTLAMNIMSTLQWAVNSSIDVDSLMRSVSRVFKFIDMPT

[4] = target: 2PT-NBD1-RE (2PT-NBD1 with residues 387-678, containing the regulatory extension) (human, UniProt P13569 387-678, biotinylated for the ELISA (sites not given)); experiment: ELISA, biotinylated 2PT-NBD1-RE on avidin-coated plate, T2a titrated
Sequence of 2PT-NBD1-RE (2PT-NBD1 with residues 387-678, containing the regulatory extension) (P13569 other isoform, or with tags, fused parts or gaps limits assumed): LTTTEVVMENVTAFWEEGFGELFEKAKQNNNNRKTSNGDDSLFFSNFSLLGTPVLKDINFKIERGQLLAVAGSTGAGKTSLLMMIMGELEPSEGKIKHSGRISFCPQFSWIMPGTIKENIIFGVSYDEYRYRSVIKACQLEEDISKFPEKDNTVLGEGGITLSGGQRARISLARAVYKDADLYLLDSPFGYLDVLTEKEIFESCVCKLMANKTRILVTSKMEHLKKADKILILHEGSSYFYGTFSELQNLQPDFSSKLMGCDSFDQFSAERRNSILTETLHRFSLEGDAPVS
Source text: as §1, §2

[5] = target: T2, Stabilized human CFTR (stab-CFTR: …); experiment: cell-based or functional assay; remark: listed apart in the source
F508del-2PT-NBD1 [6] = target: T3, F508del-2PT-NBD1 (human, UniProt P13569 388-646, biotinylated for the ELISA (sites not given)); experiment: ELISA, biotinylated F508del-2PT-NBD1 on avidin-coated plate, nanobody titrated, anti-His detection
T3 construct: also called F508del-2PT-NBD1 mutant
T3 sequence (P13569 other isoform, or with tags, fused parts or gaps limits assumed, stated change not applied): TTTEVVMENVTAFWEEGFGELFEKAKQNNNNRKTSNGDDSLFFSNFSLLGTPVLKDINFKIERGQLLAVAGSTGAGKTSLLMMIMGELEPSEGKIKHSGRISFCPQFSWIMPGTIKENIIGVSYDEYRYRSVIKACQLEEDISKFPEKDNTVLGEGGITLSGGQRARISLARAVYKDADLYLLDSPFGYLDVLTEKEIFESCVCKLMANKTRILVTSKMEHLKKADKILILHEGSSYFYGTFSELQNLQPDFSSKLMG
Description: as §3, §4

[7] = target: T1, 2PT-NBD1 (human CFTR nucleotide-binding …); experiment: ELISA, biotinylated 2PT-NBD1 on avidin-coated plate, T8 titrated, anti-His detection
Description: as §3
(§5) For dose-response assays, Nunc MaxiSorp 96-well plates (ThermoScientific), were coated with 5 μg/ml NeutrAvidin Biotin-Binding protein (ThermoScientific) overnight at 4° C. and blocked 2 h at room temperature (RT) with 2% milk in phosphate-buffered saline (PBS). […] 50 μl of 1-Step UltraTMB-ELISA (ThermoScientific) was used as a substrate for the peroxidase and intensity of the reaction was proportional to absorbance measured at 450 nm with SynergyMx (BioTek) after addition of 50 μl H₂SO₄ at 1M.

F508del-2PT-NBD1 [8] = target: T3, F508del-2PT-NBD1; experiment: ELISA, biotinylated F508del-2PT-NBD1 on avidin-coated plate, T8 titrated, anti-His detection; normalised to the maximum of T8 on 2PT-NBD1
Description: as §3, §5

EC50 (read off the curve) [1]: ~7 nM
pEC50 [2]: 7.9
EC50 (read off the curve) [4]: ~10 nM
EC50 (read off the curve) (F508del-2PT-NBD1 [6]): ~10 nM
B1: Nanobody T2a (VHH, not shown: small tags and cut ends)
VHH: QVQLQESGGGLVQAGGSLRLSCAASGSIFRIDAMGWYRQAPGKQRELVAHSTSGGSTDYADSVKGRFTISRDNAKNTVYLQMNSLKPEDTAVYYCNADVRTRWYASNNYWGQGTQVTVSS
notes: Llama nanobody; also called Nb T2a; T2a Nb
Tm of stab-CFTR in complex with the nanobody (nanoDSF, first derivative of 350 nm fluorescence); 'stab-CFTR (51.4°C)', 'T2a (66.6°C)' alone [3]: 59.7 °C
thermostabilization (nanoDSF, Tm) [5]: 8 °C

EC50 (read off the curve) [7]: ~10 nM
pEC50 [2]: 7.9
B2: Nanobody T8 (VHH, not shown: small tags and cut ends)
VHH: QVQLQESGGGLVQPGGSLRLSCAASGSTSSINAMGWYRQAPGKQREPVAISSSGGDTRYAEPVKGRFTISRDNAQNKVYLQMNSLKPEDTAVYYCWLNWGRTSVNSWGQGTQVTVSS
notes: Llama nanobody; also called Nb T8; T8 Nb
binding result (F508del-2PT-NBD1 [8]): no binding (tested: log [T8] about -5.9 M)
